Reference: publication PMC4894655, “Three proliferating cell nuclear antigen homologues from Metallosphaera sedula form a head-to-tail heterotrimer” (Scientific Reports, 2016)

Tests used:
[1] = target: T1, MsePCNA2 (Metallosphaera sedula, UniProt A4YHP5 1-244); assay: SPR; 20 nM SsoPCNA1
T1 chain: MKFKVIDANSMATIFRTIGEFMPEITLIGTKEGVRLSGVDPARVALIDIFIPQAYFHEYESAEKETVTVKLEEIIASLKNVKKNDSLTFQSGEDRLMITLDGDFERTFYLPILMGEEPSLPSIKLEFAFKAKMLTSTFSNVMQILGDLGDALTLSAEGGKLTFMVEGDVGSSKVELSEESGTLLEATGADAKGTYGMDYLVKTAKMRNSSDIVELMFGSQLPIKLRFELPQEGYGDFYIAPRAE

[2] = target: T2, SsoPCNA2 (Sulfolobus solfataricus); assay: SPR; 20 nM SsoPCNA1
T2 chain: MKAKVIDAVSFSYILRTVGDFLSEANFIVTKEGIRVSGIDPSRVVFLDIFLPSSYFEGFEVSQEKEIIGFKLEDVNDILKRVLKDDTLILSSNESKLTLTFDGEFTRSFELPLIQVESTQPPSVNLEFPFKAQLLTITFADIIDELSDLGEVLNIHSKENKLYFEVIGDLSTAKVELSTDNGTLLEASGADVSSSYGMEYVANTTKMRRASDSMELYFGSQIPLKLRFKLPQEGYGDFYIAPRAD

[3] = target: T2, SsoPCNA2; assay: SPR; Biacore; about 350 RU of MsePCNA2 or SsoPCNA2 immobilised on Sensor Chip CM5; MsePCNA1 or SsoPCNA1 injected (2.5, 5, 10, 20, 40 nM), kinetic fit; 10 mM HEPES-HCl pH 7.4, 150 mM NaCl
[4] = target: T1, MsePCNA2; assay: SPR; 75 nM SsoPCNA1
[5] = target: T1, MsePCNA2; assay: SPR; 0.61 nM SsoPCNA1
[6] = target: T2, SsoPCNA2; assay: SPR; 0.61 nM SsoPCNA1
[7] = target: T1, MsePCNA2; assay: SPR; 10 nM SsoPCNA1
[8] = target: T2, SsoPCNA2; assay: SPR; 10 nM SsoPCNA1
[9] = target: T1, MsePCNA2; assay: SPR; 10 nM SsoPCNA1
[10] = target: T1, MsePCNA2; assay: SPR; 5 nM SsoPCNA1
[11] = target: T2, SsoPCNA2; assay: SPR; 5 nM SsoPCNA1
[12] = target: T1, MsePCNA2; assay: SPR; 0.61 nM SsoPCNA1
[13] = target: T2, SsoPCNA2; assay: SPR; 0.61 nM SsoPCNA1
[14] = target: T2, SsoPCNA2; assay: SPR; 40 nM SsoPCNA1
[15] = target: T1, MsePCNA2; assay: SPR; 2.5 nM SsoPCNA1
[16] = target: T2, SsoPCNA2; assay: SPR; 2.5 nM SsoPCNA1
[17] = target: T1, MsePCNA2; assay: SPR; 20 nM SsoPCNA1
[18] = target: T2, SsoPCNA2; assay: SPR; 20 nM SsoPCNA1
[19] = target: T2, SsoPCNA2; assay: SPR; 5 nM SsoPCNA1
[20] = target: T1, MsePCNA2; assay: SPR; 40 nM SsoPCNA1
[21] = target: T1, MsePCNA2; assay: SPR; 2.5 nM SsoPCNA1
[22] = target: T2, SsoPCNA2; assay: SPR; 2.5 nM SsoPCNA1
[23] = target: T1, MsePCNA2; assay: SPR; 75 nM SsoPCNA1
[24] = target: T2, SsoPCNA2; assay: SPR; 75 nM SsoPCNA1

B1: SsoPCNA1 (natural protein)
chain: MFKIVYPNAKDFFSFINSITNVTDSIILNFTEDGIFSRHLTEDKVLMAIMRIPKDVLSEYSIDSPTSVKLDVSSVKKILSKASSKKATIELTETDSGLKIIIRDEKSGAKSTIYIKAEKGQVEQLTEPKVNLAVNFTTDESVLNVIAADVTLVGEEMRISTEEDKIKIEAGEEGKRYVAFLMKDKPLKELSIDTSASSSYSAEMFKDAVKGLRGFSAPTMVSFGENLPMKIDVEAVSGGHMIFWIAPRL
- koff [1]: 0.000472 s⁻¹
- koff [2]: 0.000163 s⁻¹
- Kd [3]: 0.65 nM
- koff [3]: 0.00015 s⁻¹
- kon [3]: 250000 M⁻¹ s⁻¹
- Kd [4]: 2.14 nM
- koff [5]: 0.000528 s⁻¹
- koff [6]: 0.000172 s⁻¹
- koff [7]: 0.000501 s⁻¹
- koff [8]: 0.000182 s⁻¹
- Kd [9]: 1.57 nM
- koff [10]: 0.000505 s⁻¹
- koff [11]: 0.000173 s⁻¹
- Kd [12]: 1.21 nM
- Kd [13]: 0.383 nM
- koff [14]: 0.000134 s⁻¹
- Kd [15]: 1.41 nM
- Kd [16]: 0.473 nM
- Kd [17]: 2.67 nM
- Kd [18]: 0.116 nM
- Kd [19]: 0.602 nM
- Kd [20]: 1.63 nM
- koff [21]: 0.000512 s⁻¹
- koff [22]: 0.000171 s⁻¹
- koff [23]: 9.46e-05 s⁻¹
- koff [24]: 3.07e-05 s⁻¹
